Results as given in patent publication US9113649B2, “Food additive comprising an amidase for detoxifying ochratoxin” (DuPont Nutrition Biosciences ApS, priority 2010, dated 2015).

How the values were obtained:
[1] = pH and temperature stability of amidase 2 at 70° C.; assay type: biochemical; details: between pH 6 and 9; pre-incubated 30 min; stability decreased with the decrease in pH
Description: The reaction mixture contained 5 μl amidase 2 mixture (155 μg protein/ml), 45 μl 67 mM phosphate buffer at either pH3, 4, 5, 6, 7, 8 or 9. The reaction mixes were incubated at 70° C. for 30 min, before 2 μl 0.5 mg/ml OTA in ethanol and 80 μl 0.2M Mops pH 7.0 were added and the samples incubated at 30° C. for 60 min. The reaction was stopped by adding 130 μl acetonitrile containing 0.2% HAC, filtered and analysed by RP-HPLC.
Further more the recombinant amidase 2 was quite stable at 70° C. between pH 6 and 9. The stability decreased with the decrease in pH (FIG. 13). Activity was assayed at pH 7.0 and 30° C. The pre-incubation mixture contained 5 μl amidase 2 mixture (155 μg protein/ml), 45 μl 67 mM phosphate buffer (pH3, 4, 5, 6, 7, 8 and 9). The samples were pre-incubated at 70° C. for 30 min. After cooling to 30° C., 2 μl 0.5 mg/ml OTA in ethanol and 80 μl 0.2M Mops-NaOH (pH 7.0) were added and the reaction incubated at 30° C. for 60 min. The reaction was stopped by adding 130 μl acetonitrile containing 0.2% HAC, filtered and injected on RP-HPLC with an injection of 5 μl to monitor the remaining OTA.

[2] = pH optimum of amidase 2 in degrading OTA; assay type: biochemical; details: 30° C., 60 min; followed by pH 6 and 8; pH 5 and 9
Description: The reaction mixture contained 5 μl amidase 2 mixture (a mixture of the intracellular fractions of transformant 3, 4, 7-8, 10-11 and 13-15) with a protein concentration of 155 μg protein/ml), 0.1 ml 67 mM phosphate buffer (pH3, 4, 5, 6, 7, 8 and 9), 25 μl OTA (1 μg/ml). The reaction was performed at 30° C. for 60 min and stopped by the addition of 0.13 ml acetonitrile containing 0.2% HAC. An injection volume of 10 μl was used for RP-HPLC analysis of remaining OTA after filtering.
Five microliters of enzyme solution were combined with […] OTA 1 μg/mL diluted in different buffers: 50 mM sodium acetate buffer (pH 4, 4.5, 5 and 5.5); 50 mM MES-NaOH buffer (pH 6, 6.5 and 7); 50 mM Tris-HCl buffer (pH 7.5, 8 and 8.5).

[3] = heat stability of amidase 2 at 80° C.; assay type: biochemical; details: 5-30 min pre-incubation at 80° C., pH7.0
Description: The pre-incubation mixture in a 1.5 ml ependorpf tube contained 5 μl of the amidase 2 mixture (155 μg protein/ml), and 45 μl 67 mM phosphate buffer pH7.0. The samples were pre-incubated at 80° C. for 0, 5, 10, 15, 20, 25 and 30 min. After cooling to 15° C., 50 μl 67 mM phosphate buffer and 25 μl OTA (1 μg/ml) were added to start the reaction this was incubated at 30° C. for 60 min, the reaction was stopped by the addition of 130 μl acetonitrile containing 0.2% HAC. An injection volume of 10 μl was used for RP-HPLC analysis of remaining OTA after filtering.
The reaction mixture of 5 μl enzyme plus 45 μl 68 mM sodium phosphate (pH7.0) was incubated at 80° C. for 0-30 min before adding another 50 μl the phosphate buffer and 25 μl 1 μg/ml OTA, and incubated at 30° C. for 60 min. The reaction was stopped by adding 130 μl acetonitrile containing 0.2% acetic acid (v/v). The reaction mixture was filtered and injected (10 μl) for HPLC analysis. Ctrl was control where no amidase was added.

[4] = degradation of OTA in DDGS by amidase 2 sig; assay type: biochemical; details: DDGS slurry pH 6.7; 800 ppb at start; 3.1 μg protein; 37° C., 22 hr
Description: For DDGS, 1 g was suspended in 10 ml water, pH adjusted to 6.7 with NaOH. To 210 μl of this slurry was added 8 μl OTA (25 μg/ml) and 20 μl amidase 2 sig (3.1 μg protein), mixed and incubated at 37° C. for 22 hr. The OTA concentration decreased from 800 ppb at start to 5 ppb at the end. OTA analysis by HPLC was described in the materials and methods section above.

[5] = sensitivity of OTA hydrolysis to CaCl2 and EDTA; assay type: biochemical
Description: One protease inhibitor cocktail (PIC) tablet (Roche Applied Science, Mannhein, Germany) was dissolved in 1.5 mL. milliQ water to obtain a 7× stock solution. For formamidase inhibition assay, instead of 100 μL milliQ water normally employed, 20 μL of 7×PIC stock solution and 80 μL of milliQ water were mixed with other components listed in formamidase activity assay section. For OTA degrading activity, 35 μL 7×PIC solution were mixed with 210 μL OTA 1 μg/mL and 5 μL enzyme solution. […] For controls, inhibitor solution is replaced either by milliQ water for formamidase activity assay or MES-NaOH pH7 buffer for OTA degrading activity.
Also it is known that the OTA degrading activity in the Amano™ lipase product is sensitive to EDTA.
[…] The reaction was performed at 37° C. for 30 min and stopped by adding 150 μl acetonitrile containing 0.2% acetic acid. OTA and its product OT-alpha (=ODα) were analyzed on RP-HPLC on C18 column with an injection of 5 μl. Positive control (PC) contained no additives other than the buffer the amidase and OTA. Blank contained only buffer and OTA.

[6] = degradation of OTA in corn flour by amidase 2 sig; assay type: biochemical; details: 800 ppb at the start, 3.1 μg protein, 37° C., 22 hr
Description: For corn flour, 50 mg corn flour was added 210 μl water, 8 μl OTA (25 μg/ml) and 20 μl amidase 2 sig (3.1 μg protein), mixed and incubated at 37° C. for 22 hr. The OTA concentration decreased from 800 ppb at the start to 14 ppb at the end. OTA analysis by HPLC is described in the materials and methods section above.

[7] = detoxification of OTA in corn flour by amidase 2 mat; assay type: biochemical; details: from 38 ppm, 30° C., 20 hr, pH7.0
Description: (§1) The reaction mixture in 1.5 ml eppendorf tubes (C1-3) comprised 60 mg corn flower, 200 μl Mops-NaOH (0.2 M pH7.0), 40 μl amidase 2 mixture (which was mixture of an equal volume of the broth of A. niger transformant having amdiase 2 gene 3, 4, 7, 8, 10, 11, 13, 14, and 15), 20 μl OTA (0.5 mg/ml). Total volume of the three components was 260 μl; final OTA was 38 μg/ml or 38 ppm (ppm, parts per million). Control: Tubes of Controls (C-4-6) were the same as C1-3 except that the amidase preparation (the broth) was replaced with water.
(§2) The reaction was performed at 30° C. with skaking for 20 hr before the addition of equal volume of acetonitrile 260 μl containing 0.2% acetic acid to stop the reaction and to extract the OTA. After centrifugation and filter, the filtrate was analyzed on HPLC.

[8] = degradation of OTA in milk by amidase 2 mat; assay type: biochemical; details: light milk; 47 ppb at start; 0.22 μg protein; 40° C., 2.5 hr
Description: Light milk (1.5% fat, protein 3.4 g, carbohydrate 4.7 g Calcium 120 mg, Phosphorus 95 mg in 100 ml) from Aria Foods Amba (Aarhus, Denmark) 0.15 ml, 3 μl OTA (2.5 μg/ml), 7.5 μl purified amidase 2 mat (from the broth of A. niger harboring the amidase 2 gene) containing 0.22 μg protein were mixed and reacted at 40° C. for 2.5 hr. The OTA decreased from 47 ppb at start to undetectable level (<2 ppb) after 2.5 hr incubation. OTA analysis by HPLC was described in the materials and methods section above.

[9] = OTA degradation as a function of amidase 2 mat concentration; assay type: biochemical
Description: The amidase used was purified from the broth of transformant 13 (438aa protein referred to as amidase 2 mat).
Ochratoxin A (OTA) degrading activity of amidase 2 mat purified from the fermentation broth of A. niger harboring the amidase 2 gene as a function of its concentration is shown in FIG. 15. It can be seen from FIG. 15 that the degradation of OTA was amidase 2 mat concentration dependent. One can also see that after 30 min with an amidase 2 mat concentration of 160 ng/ml the OTA decreased by 83%. From the linear region of FIG. 15 the calculated specific activity for amidase 2 mat was 900 nanomole OTA hydrolyzed per min per mg protein at pH7.0 and 40° C. at an OTA concentration of 1 μg/ml reaction mixture. The reaction for FIG. 15 was performed in 0.1 Mops-NaOH (pH 7.0) and 40° C. for 30 min before it was stopped by adding equal volume of acetonitrile containing 0.2% acetic acid and analyzed on RP-HPLC on a C18 column as described in the Material and Method section.

[10] = detoxification of OTA in corn-soy based feed by amidase 2 mat; assay type: biochemical; details: from 38 ppm, 20 hr incubation
Description: as §1, §2
The tests of amidase 2 mat with soy-corn based feed (whose composition is given in Table 3) contaminated with OTA was exactly as the test with corn flour, that is, tubes S1-3 (experimental) were with the broth while for tubes S 5-6 (controls) water replaced the broth. After 20 hr incubation, the OTA level was reduced from 38 ppm to 6.6 ppm, a reduction of 6 times or 82%.

[11] = assay type: biochemical; details: same concentration, optimum conditions, one hour
Description: The enzyme solution of Amidase 2 mat obtained after AEX was tested on ochratoxin B at the same concentration under optimum conditions for one hour. The degrading rate with ochratoxin B was 8% compared to OTA.

B1: recombinant amidase 2: amidase 2 from transgenic A. niger intracellular preparation, a mixture of intracellular fractions of transformants 3, 4, 7-8, 10-11 and 13-15 (protein)
chain: MVRRIASATPMVQSPMSPLGTTYCVRPNPVSLNLQRRPLVIASTDEAKVTIIYAGLLIPGDGEPLRNAALVISDKIIAFVGSEADIPKKYLRSTQSTHRVPVLMPGLWDCHMHFGGDDDYYNDYTSGLATHPASSGARLARGCWEALQNGYTSYRDLAGYGCEVAKAINDGTIVGPNVYSSGAALSQTAGHGDIFALPAGEVLGSYGVMNPRPGYWGAGPLCIADGVEEVRRAVRLQIRRGAKVIKVMASGGVMSRDDNPNFAQFSPEELKVIVEEAARQNRIVSAHVHGKAGIMAAIKAGCKSLEHVSYADEEVWELMKEKGILYVATRSVIEIFLASNGEGLVKESWAKLQALADSHLKAYQGAIKAGVTIALGTDTAPGGPTALELQFAVERGGMTPLEAIKAATANAPLSVGPQAPLTGQLREGYEADVIALEENPLEDIKVFQEPKAVTHVWKGGKLFKGPGIGPWGEDARNPFL
modifications: Aspergillus niger
With B1 as the molecule, how does the “stability at 70° C.” value [1] read?
The value was “quite stable”.

And the “pH of highest enzyme activity” value [2]?
The value was 7.0 pH.

What about the “activity remained after pre-incubation” value [3] of the same molecule?
Its value is “more than 80%”.

B2: amidase 2 sig: full length 480 amino acid A. niger amidase 2 with N-terminal or signal sequence, MW about 51 kDa; intracellular fraction (protein)
chain: B1 chain
modifications: Aspergillus niger
notes: intracellular fraction
Which results are given for B2?
OTA concentration at the end [4]: 5 ppb; inhibition by CaCl2 ([5]; 8 mM CaCl2, intracellular fraction of transgenic A. niger): not appreciably inhibited; inhibition by CaCl2 ([5]; 20 mM CaCl2, 37° C., 30 min, pH7.0): no inhibition; inhibition by EDTA ([5]; 20 mM EDTA, 37° C., 30 min, pH7.0): no inhibition; OTA concentration at the end [6]: 14 ppb

B3: amidase 2 mat: secreted mature 438 amino acid amidase 2 from A. niger, MW about 47 kDa, N-terminal 42 amino acids cleaved (protein)
chain: STDEAKVTIIYAGLLIPGDGEPLRNAALVISDKIIAFVGSEADIPKKYLRSTQSTHRVPVLMPGLWDCHMHFGGDDDYYNDYTSGLATHPASSGARLARGCWEALQNGYTSYRDLAGYGCEVAKAINDGTIVGPNVYSSGAALSQTAGHGDIFALPAGEVLGSYGVMNPRPGYWGAGPLCIADGVEEVRRAVRLQIRRGAKVIKVMASGGVMSRDDNPNFAQFSPEELKVIVEEAARQNRIVSAHVHGKAGIMAAIKAGCKSLEHVSYADEEVWELMKEKGILYVATRSVIEIFLASNGEGLVKESWAKLQALADSHLKAYQGAIKAGVTIALGTDTAPGGPTALELQFAVERGGMTPLEAIKAATANAPLSVGPQAPLTGQLREGYEADVIALEENPLEDIKVFQEPKAVTHVWKGGKLFKGPGIGPWGEDARNPFL
modifications: Aspergillus niger
notes: secreted mature 438 amino acid amidase 2 from A. niger, MW about 47 kDa, N-terminal 42 amino acids cleaved
For B3, which “inhibition of activity in the hydrolysis of OTA” value ([5]; 8 mM CaCl2, enzyme purified from the Amano™ lipase product) is on record?
The value was “around 40%”.

What about the “inhibition of activity in the hydrolysis of OTA” value ([5]; 8 mM CaCl2, enzyme purified from the broth of transgenic A. niger) of the same molecule?
Its value is “around 40%”.

And the “inhibition by extra EDTA” value ([5]; data not shown)?
Its value is “inhibited”.

And the “remaining OTA” value [7]?
Its value is “less than 2 ppb”.

What about the OTA after incubation [8] of the same molecule?
Its OTA after incubation is under 2 ppb.

What about the OTA decrease ([9]; 160 ng/ml amidase 2 mat, 30 min, pH 7.0, 40° C.) of the same molecule?
The OTA decrease was 83%.

And the specific activity ([9]; pH7.0 and 40° C., OTA 1 μg/ml reaction mixture, calculated from linear region of FIG. 15)?
The specific activity was 900 nanomole OTA hydrolyzed per min per mg protein.

And the “OTA level after incubation” value [10]?
Its value is 6.6 ppm.

What about the “degrading rate with ochratoxin B compared to OTA” value [11] of the same molecule?
The value was 8%.
